The source of these data is patent publication US20230203146A1 (Boehringer Ingelheim, published 2023).

The test concerns the target T1, recombinant human Ang2-FLD (human, UniProt O15123 275-496, limits assumed).
T1 construct: domain: FLD; not used
T1 sequence (looked up): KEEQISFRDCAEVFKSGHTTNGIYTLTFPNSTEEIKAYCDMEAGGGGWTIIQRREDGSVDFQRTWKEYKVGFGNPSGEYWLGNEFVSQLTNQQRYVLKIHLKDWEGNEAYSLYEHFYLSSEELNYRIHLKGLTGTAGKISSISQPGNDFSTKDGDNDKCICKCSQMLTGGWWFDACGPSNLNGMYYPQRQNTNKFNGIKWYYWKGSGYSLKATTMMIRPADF
The test can be described thus: ProteOn off-rate assay, periplasmic extract 1:10 over coated human Ang2-FLD. The method, then:
In a first cycle, amino acid substitutions are introduced randomly in both framework (FW) and complementary determining regions (CDR) using the error-prone PCR method. […] After a polish step, PCR products are inserted via unique restriction sites into a vector designed to facilitate phage display of the VHH library. […] Periplasmic extract of affinity matured clones is diluted 1:10 and injected across the “analyte channels” A1-A6.

B1: VHH 55D06 (VHH)
VHH: EVQLVESGGGLVQAGGSLRLSCAASGLTLDDYAIGWFRQAPGKEREGVSSIRDNDGSTYYADSVKGRFTISSDNDKNTVYLQMNSLKPEDTAVYYCAAVPAGRLRFGEQWYPIYEYDAWGQGTLVTVSS
notes: periplasmic extract; not shown: C-terminal c-myc tag and His6 tag
In the case of B1, the “fold improvement (off-rate against VHH 00027)” value (“fold improvement” for short) was 9.4 fold and the koff turned out to be 0.00012 s⁻¹.

B2: VHH 55G03 (VHH)
VHH: EVQLVESGGSLVQAGGSLRLSCAASGLTLDDYAIGWFRQAPGKEREGVSSIRDNDGSTYYADSVKGRFTISSDNDKNTVYLQMNSLKPEDTAVYYCAAVPAGRLRFGEQWYPIYEYDAWGQGTLVTVSS
notes: as for B1
In the case of B2, the “fold improvement” value worked out at 8 fold and the koff was 0.00015 s⁻¹.

B3: VHH 56A07 (VHH)
VHH: EVQLVESGGGLVQAGGSLRLSCAASGFTLDDYAIGWFRQAPGKEREGVSSIRDNDGSTYYADSVKGRSTISSDNARNTVFLQMNSLKPEDTAVYYCAAVPAGRLRFGEQWYPIYEYDAWGQGTLVTVSS
notes: as for B1
In the case of B3, the “fold improvement” value amounted to 8.1 fold and the off-rate (koff) stood at 0.00015 s⁻¹.

B4: VHH 64G03 (VHH)
VHH: EVQLVESGGGLVQAGGSLRLSCAASGFTLDDYAIGWFRQAPGKEREGVSSIRDNDGSTYYADSVKGRSTISSDNDKNTVYLQMDSLKPEDTAVYYCAAVPAGRLRYGEQWYPIYEYDAWGQGTLVTVSS
notes: as for B1
On to B4, for which the “fold improvement” value worked out at 15.7 fold and the koff turned out to be 7.4e-05 s⁻¹.

B5: VHH 65F03 (VHH)
VHH: EVQMVESGGGLVQAGGSLRLSCAASGLTLDDYAIGWFRQAPGKEREGVSSIRDNDGSTYYADSVKGRFTISSDNDKNTVYLQMNGLKPEDTAVYYCAAVPAGRLRFGEQWYPIYEYDAWGQGTLVTVSS
notes: as for B1
In the case of B5, the “fold improvement” value is 8.9 fold and the koff stood at 0.00014 s⁻¹.

B6: VHH 64F03 (VHH)
VHH: EVQLVESGGGLVQAGGSLRLSCAVSGITLDDYAVGWFRQAPGKEREGVSTIRDNDGSTYYADSVKGRFTISSDNDKNTVYLQMNSLKPKDTAVYYCAAVPAGRLRFGEQWYPIYEYDAWGQGTLVTVSS
notes: as for B1
Turning to B6, the “fold improvement” value turned out to be 10.8 fold and the koff amounted to 0.00011 s⁻¹.

B7: VHH 53A06 (VHH)
VHH: EVQLVESGGSLVQAGGSLRLSCAASGLTLDDYAIGWFRQAPGKEREGVSSIRDNDGSTYYADSVKGRFTISSDNDKNTVYLQMNSLKPEDTAVYYCAAVPAGRLRFGEQWYPIYEYDAWGQGTLVTVSS
notes: as for B1
As for B7, the “fold improvement” value was determined as 8 fold and the koff was determined as 0.00016 s⁻¹.

B8: VHH 55A06 (VHH)
VHH: EVQLMESGGGLVQAGGSLRLSCAASGITLDDYAIGWFRQAPGKEREGVSSIRDNDGSTYYADSVKGRFTISSDNDKNTVNLQMNSLKPEDTAVYYCAAVPAGRLRFGEQWYPIYEYDAWGQGTLVTVSS
notes: as for B1
In the case of B8, the “fold improvement” value was 9.2 fold and the koff stood at 0.00013 s⁻¹.

B9: VHH 58D10 (VHH)
VHH: EELLVESGGGSVQAGGSLKLSCAASGLTLDDYAIGWFRQAPGKEREGVSSIRDNDGSTYYADSVKGRFTISSDNDKNTVYLQMNSLKPEDTAVYYCAAVPAGRLRFGEQWYPIYEYDAWGQGTLVTVSS
notes: as for B1
For B9, the “fold improvement” value is 8.1 fold and the koff was found to be 0.00013 s⁻¹.

B10: VHH 64C07 (VHH)
VHH: EVHLVESGGGLVQAGGSLRLSCAASGLTLDDYAIGWFRQAPGVEREGVSSIRDNDGSTYYADSVKGRFTISSDNDKNTVYLQMNSLKPEDTAVYYCAAVPAGRLRFGEQWYPIYEYDAWGQGTLVTVSS
notes: as for B1
B10: the “fold improvement” value was 8.3 fold and the koff amounted to 0.00014 s⁻¹.

B11: VHH 64E12 (VHH)
VHH: EVQLVESGGGLVQAGGSLRLSCAVSGFTLDDYAIGWFRQAPGKEREGVSSIRDNDGSTYYADSVKGRSTISSDNDKNTVYLQMNSLKPEDTAVYYCAAVPAGRLRFGEQWYPIYEYDAWGQGTLVTVSS
notes: as for B1
As for B11, the “fold improvement” value was 8.7 fold and the koff was determined as 0.00013 s⁻¹.

B12: VHH 64B01 (VHH)
VHH: EVQLVESGGGLVQAGGTLRLSCAVSGFTLDDYAIGWFRQAPGKEREGVSSIRDNDGSTYYADSVKGRFTISSDNDKNTVYLQMNSLKPEDTAVYYCAAVPAGRLRFGEQWYPIYEYDAWGQGILVTVSS
notes: as for B1
Consider B12, for which the “fold improvement” value worked out at 8.2 fold and the off-rate constant (koff) was found to be 0.00014 s⁻¹.

B13: VHH 64A03 (VHH)
VHH: EVQLLESGGGLVQAGGSLRLSCAASGFTLDDYAIGWFRQAPGKEREGVSSIRDNDGSTYYADSVKGRFTISSDNDKNTVYLQMNSLKPEDTAVYYCAAVPAGRLRIGEQWYPIYEYDAWGQGTLVTVSS
notes: as for B1
For B13, the “fold improvement” value was determined as 8.3 fold and the koff came to 0.00014 s⁻¹.

B14: VHH 65F01 (VHH)
VHH: EVQLVESGGGLVQAGGSLRLSCAASGLTLDDYAIGWFRQAPGKEREGVSSIRDNDGSRYYADSVKGRFTISSDNDKNTVYLQMNSLKPEDTAVYYCAAVPAGRLRFGEQWYPIYEYDAWGQGTLVTVSS
notes: as for B1
Turning to B14, the “fold improvement” value came to 8.1 fold and the koff amounted to 0.00016 s⁻¹.

B15: VHH 55F02 (VHH)
VHH: EVQLVESGGGLVQSGGSLRLSCAASGLTLDDYAIGWFRQAPGKEREGVSSIRDNDGSTYYADSVKGRFTISSDNDKNTVYLQMNSLKPEDTAVYYCAAVPAGRLRFGEQWYPIYEYDAWGQGTLVTVSS
notes: as for B1
Take B15: the “fold improvement” value was 8.7 fold and the koff was determined as 0.00014 s⁻¹.

B16: VHH 64G01 (VHH)
VHH: EVQLVESGGGLVQAGGSLRLSCAASGFTLDDYAIGWFRQAPGKEREGVSSIRDNDGSTYYADSVKGRFIISSDNDKNTVYLQMNNLKPEDTAVYYCAAVPAGRLRYGEQWYPIYEYDAWGQGTLVTVSS
notes: as for B1
Regarding B16, the “fold improvement” value came out at 8.2 fold and the koff worked out at 0.00014 s⁻¹.

B17: VHH 64G11 (VHH)
VHH: EVQLVESGGGLVQAGGSLRLSCAASGITLDDYAIGWFRQAPGKERVGVSSIRDNDGSTYYADSVKGRFTISSDNDKNTVYLQMNSLKPEDTAVYYCAAVPAGRLRFGEQWYPIYEYDAWGQGTLVTVSS
notes: as for B1
As to B17, the “fold improvement” value worked out at 9.6 fold and the koff was found to be 0.00012 s⁻¹.

B18: VHH 64G12 (VHH)
VHH: EVQLVESGGGLVQAGGSLRLSCAVSGFTLDDYAIGWFRQAPGKEREGVSSIRENDGSTYYADSVQGRFTISSDNDKNTVYLRMNSLKPEDTAVYYCAAVPAGRLRFGEQWYPIYEYDAWGQGTLVTVSS
notes: as for B1
For the molecule B18, the “fold improvement” value is 8.9 fold and the koff is 0.00013 s⁻¹.

B19: VHH 60C09 (VHH)
VHH: EVQLVESGGGLVQAGGSLRLSCAVSGITLDDYAIGWFRQAPGKEREGVSSIRDNDGSTYYADSVKWRFTISSDNDKNTVYLQMNSMKPEDTAVYYCAAVPAGRLRFGEQWYPIYEYDAWGQGILVTVSS
notes: as for B1
Consider B19, for which the “fold improvement” value is 8.5 fold and the koff came out at 0.00016 s⁻¹.

B20: VHH 64F07 (VHH)
VHH: QVQLVESGGGLVQAGGSLRLSCAVSGFTLDDYAIGWFRQAPGKEREGVSSIRDNDGSTYYADSVKGRFTISSDNDQNTVYLQMNSLKSEDTAVYYCAAVPAGRLRFGEQWYPIYEYDAWGQGTLVTVSS
notes: as for B1
Regarding B20, the “fold improvement” value was 9.4 fold and the koff was 0.00012 s⁻¹.

B21: VHH 64D11 (VHH)
VHH: EVQLVESGGGQAQAGGSLRLSCAVSGFTLDDYAIGWFRQAPGKEREGVSSIRDNDGSTYYTDSVKGRFTISSDNDKNTVYLQMNSLKPEDTAVYYCAAVPAGRLRFGEQWYPIYEYDAWGQGTLVTVSS
notes: as for B1
B21: the “fold improvement” value stood at 10.3 fold and the koff is 0.00011 s⁻¹.

B22: VHH 64B02 (VHH)
VHH: EVQLVESGGGLVQAGGFLRLTCAVSGFTLDDYAIGWFRQAPGKEREGVSSIRDNDGSTYYADSVKGRFTISSDNVKNTVYLQMNSLKPEDTAVYYCAAVPAGRLRFGEQWYPIYEYDAWGQGTLVTVSS
notes: as for B1
As to B22, the “fold improvement” value amounted to 8.5 fold and the koff was determined as 0.00014 s⁻¹.

B23: VHH 60A06 (VHH)
VHH: EVQLVESGGGLVQAGGSLRLSCAASGFTLDDYAIGWFRQAPGKDREGVSSIRDNDGSTYYADSVKGRFTISSDNDKNTVYLQMNSLKPEDTAVYYCAAVPAGRLRYGEQWYPIYEYDAWGQGTVVTVSS
notes: as for B1
B23: the “fold improvement” value is 8.3 fold and the koff came out at 0.00016 s⁻¹.

B24: VHH 64G02 (VHH)
VHH: EVQLVESGGGLVQAGGSLRLSCAISGFTLVDYAIGWFRQAPGKEREGVSSIRDNDGSTYYADSVKGRFIISSDNDKNTVYLQMNSLKPEDTAVYYCAAVPAGRLRFGEQWYPIYEYDAWGQGTLVTVSS
notes: as for B1
With B24, the “fold improvement” value was found to be 9.4 fold and the off-rate (koff) was determined as 0.00012 s⁻¹.

B25: VHH 64C03 (VHH)
VHH: EVQLVESGGGLVQAGGSLRLSCAASGFTLDDYAIGWFRQAPGKEREGVSSIRDNDGSTYYADSVKGRFTISSDNDKNTVYLQMNSLKPEDTAVYYCAAVPAGRLRYGEQWYPIYEYDAWGQGTLVTVSS
notes: as for B1
Take B25: the “fold improvement” value came out at 9.2 fold and the koff stood at 0.00013 s⁻¹.
